Results on one substance are retold here after paper PMC8990011.

This assay has as its target Bax, endogenous in HeLa cells (human (endogenous in HeLa)) (UniProt Q07812).

Sequence of Bax, endogenous in HeLa cells (human (endogenous in HeLa)) (Q07812 whole entry): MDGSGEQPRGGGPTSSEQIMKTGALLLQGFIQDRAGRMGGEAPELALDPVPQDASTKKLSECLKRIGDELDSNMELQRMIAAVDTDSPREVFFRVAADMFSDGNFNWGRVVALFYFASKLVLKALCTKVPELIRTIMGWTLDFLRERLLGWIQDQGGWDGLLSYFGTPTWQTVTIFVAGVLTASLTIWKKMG

The substance “6xHis-Bcl-xL^K87D (from UniProt Q07817-1 1-233) (natural protein)” registered an inhibition of cBid- and Bim-triggered Bax-pore formation in ANTS/DPX liposomes (100 nM Bax, 20 nM cBid or Bim, 8-500 nM Bcl-xL protein), IC50 of 0.08 µM.
